Source: US20240150466A1 (DYNAMICURE BIOTECHNOLOGY, published 2024)
Where two headings read alike, the source gives them in different places.

T1: human IGFBP7 recombinant protein (UniProt Q16270 27-282, biotinylated with EZ-LINK NHS-PEG4 biotin in the BLI assays (sites not given))
T1 chain: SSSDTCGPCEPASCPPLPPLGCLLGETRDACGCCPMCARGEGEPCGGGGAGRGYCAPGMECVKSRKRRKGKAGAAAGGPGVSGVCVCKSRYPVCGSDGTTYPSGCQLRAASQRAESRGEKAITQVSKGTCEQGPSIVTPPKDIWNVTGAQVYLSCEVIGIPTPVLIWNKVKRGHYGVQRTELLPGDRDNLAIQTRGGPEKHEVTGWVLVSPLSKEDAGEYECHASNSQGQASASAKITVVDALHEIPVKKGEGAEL

T2: mouse IGFBP7 recombinant protein (mouse, UniProt Q61581 26-281, biotinylated with EZ-LINK NHS-PEG4 biotin in the BLI assays (sites not given))
T2 chain: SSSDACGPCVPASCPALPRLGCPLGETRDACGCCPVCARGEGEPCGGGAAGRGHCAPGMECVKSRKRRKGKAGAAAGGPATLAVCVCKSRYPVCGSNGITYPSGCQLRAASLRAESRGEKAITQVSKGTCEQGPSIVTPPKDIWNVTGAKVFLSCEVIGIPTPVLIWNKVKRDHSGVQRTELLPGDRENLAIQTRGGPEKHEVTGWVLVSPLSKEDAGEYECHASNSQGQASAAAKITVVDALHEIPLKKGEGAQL

T3: cynomolgus IGFBP7 recombinant protein (cynomolgus)
T3 chain: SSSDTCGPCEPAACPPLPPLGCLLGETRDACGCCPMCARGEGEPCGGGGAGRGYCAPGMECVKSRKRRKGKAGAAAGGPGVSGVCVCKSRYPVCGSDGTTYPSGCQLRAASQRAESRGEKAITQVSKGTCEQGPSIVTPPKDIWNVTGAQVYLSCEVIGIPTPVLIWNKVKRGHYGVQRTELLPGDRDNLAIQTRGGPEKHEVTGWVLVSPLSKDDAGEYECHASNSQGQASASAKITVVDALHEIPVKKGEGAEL

T4: His-tagged human IGFBP7 recombinant protein (human, UniProt Q16270 27-282)
T4 construct: not shown: His tag
T4 sequence: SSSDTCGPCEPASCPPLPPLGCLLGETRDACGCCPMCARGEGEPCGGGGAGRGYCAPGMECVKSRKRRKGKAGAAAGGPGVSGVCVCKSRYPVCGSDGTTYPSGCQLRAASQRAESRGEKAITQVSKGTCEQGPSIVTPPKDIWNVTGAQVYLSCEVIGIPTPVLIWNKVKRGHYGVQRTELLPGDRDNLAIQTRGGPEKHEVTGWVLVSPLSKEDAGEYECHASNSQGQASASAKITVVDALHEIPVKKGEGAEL

T5: human IGFBP7 displayed on HEK293T cells (human, UniProt Q16270 27-282)
T5 construct: domain: CD80 transmembrane domain; signal peptide stated as residues 1-26; also called hIGFBP7; hIGFBP7-HEK cells; not shown: linker; CD80 transmembrane domain
T5 sequence: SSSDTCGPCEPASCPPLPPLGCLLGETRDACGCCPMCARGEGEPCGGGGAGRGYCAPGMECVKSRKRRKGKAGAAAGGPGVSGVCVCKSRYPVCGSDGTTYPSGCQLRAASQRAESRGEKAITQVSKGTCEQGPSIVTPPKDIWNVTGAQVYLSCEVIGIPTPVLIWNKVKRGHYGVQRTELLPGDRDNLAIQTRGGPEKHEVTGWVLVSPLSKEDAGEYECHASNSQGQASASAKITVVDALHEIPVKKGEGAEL


Legend:
[1] = target: T1, human IGFBP7 recombinant protein; experiment: BLI
[2] = target: T2, mouse IGFBP7 recombinant protein; experiment: BLI
[3] = target: T3, cynomolgus IGFBP7 recombinant protein; experiment: BLI
[4] = target: T1, human IGFBP7 recombinant protein; experiment: BLI
[5] = target: T2, mouse IGFBP7 recombinant protein; experiment: BLI
[6] = target: T1, human IGFBP7 recombinant protein; experiment: BLI
[7] = target: T2, mouse IGFBP7 recombinant protein; experiment: BLI
[8] = target: T4, His-tagged human IGFBP7 recombinant …; experiment: flow cytometry blockade assay: nanobody 50 ug/mL pre-incubated with His-tagged human IGFBP7 1 ug/mL, then human CD93 CHO cells (FIG. 14)
Experimental: Anti-IGFBP7 nanobodies and nanobody-Fc fusions (50 μg/mL) generated in previous examples was incubated with His-tagged human IGFBP7 recombinant protein (1 μg/mL) for 30 minutes in 4° C. Human CD93 expressing CHO cells (1×10⁵ per well) were treated the mixture for 30 minutes at 4° C. Then the cells were washed with FACS buffer and incubated with anti-IGFBP7 monoclonal rabbit antibody (Sino Biological Inc, Catalog #13100-R003) at 1 μg/mL for 30 minutes in 4° C. After incubation, the cells were washed with FACS buffer and incubated with PE-conjugated anti-rabbit IgG antibody ([…]) for 30 minutes in 4° C. After washing with FACS buffer twice, the samples were analyzed and data acquired in NovoCyte Flow.

[9] = target: T5, human IGFBP7 displayed on HEK293T cells; experiment: flow cytometry on human IGFBP7 displaying HEK293T cells, nanobody 10 ug/ml, APC anti-HIS detection
Experimental: Human IGFBP7 and mouse IGFBP7 displaying HEK293T cells were detached by incubation with TrypLE reagents (Thermos Fisher), which preserves the integrity of IGFBP7 on the cell surface. Then the cells were incubated with anti-IGFBP7 nanobodies at 10 μg/ml for 30 minutes in 4° C. After washing by FACS buffer, the cells were incubated with APC conjugated anti-HIS antibodies (Biolegend) for 30 minutes in 4° C. After washing by FACS buffer twice, the samples were acquired in NovoCyte Flow Cytometer and analyzed by NovoExpress software.

Binder	Kd [6]	Kd [7]	percent blocking of the CD93-IGFBP7 interaction [8]	other results
bispecific anti-IGFBP7 nanobody Fc-fusion construct A1D4-mIgG2a (bispecific antibody) VQLQESGGGLVQAGGSLRLSCAASGSLFAIDKWGWYRQVAGNERELVAWRYSPVSINYGDSVKGRFTVSGDSSRKRVYLQMNSLKPDDTAVYRCAAVISGAWYWGQGTQVTVSSVQLQESGGGLVQTGGSLRLSCAASGRSFTFSSYAMGWFRHAPGKEREFLTAITWSGDYTYYTDSVKGRSTISRDNAKNTVYLQLNNLKPEDTAVYYCAAKFSQVSAFFATVSEYEYWGQGTQVTVSS				Kd [1]: 0.902 nM; Kd [2]: 1.07 nM; Kd [3]: 0.939 nM; Kd [4]: 0.902 nM; Kd [5]: 1.07 nM
A11 mIgG2a (antibody, V domains shown) VH: VQLQESEGGWSGGGSGSGDFDYEKMANANNGAMTDNADAGKQREFVAAITSGGSINYADSVKGRFTISRDNTKKTVYLQMNSLKPEDTAVYVCNIKAHPNPWGFDNDYWGQGTQVTVSS	0.0129 nM	0.0177 nM		
anti-IGFBP7 nanobody A07 (VHH, Llama nanobody expressed in E. coli as His6-tagged protein; also called A7; not shown: His6 tag) VHH: VQLQESEGGWSGGGSGSGDFGYDKMANAINGAMTDNADAGKQREFVAAITSGGSINYADSVKGRFTISTDNAKKTVYLQMNSLKPEDTAVYVCNIKAHPNPWGFDNDYWGQGTPATASS			≥ 50%	
anti-IGFBP7 nanobody A11 (VHH, Llama nanobody expressed in E. coli as His6-tagged protein; also called A11 VHH; not shown: His6 tag) VHH: VQLQESEGGWSGGGSGSGDFDYEKMANANNGAMTDNADAGKQREFVAAITSGGSINYADSVKGRFTISRDNTKKTVYLQMNSLKPEDTAVYVCNIKAHPNPWGFDNDYWGQGTQVTVSS			≥ 50%	
anti-IGFBP7 nanobody F12 (VHH, Llama nanobody expressed in E. coli as His6-tagged protein; not shown: His6 tag) VHH: VQLQESGGGLVQPGGSLRLSCAASGFTFSINTYLWYRQPPGKQREFVAAITSGGSINYADSVKGRFTISRDNAKKTVYLQMNSLKPEDTAVYVCNIKAHPNPWGFDNDYWGQGTQVTVSS				binding result [9]: binds
A4-mIgG2a nanobody Fc-fusion (Fc fusion) VQLQESGGGLVQPGGSLRLSCAASGTFTINTYLWYRQPPGKQREFVAAITRGGSINYADSVKGRFTISRDNAKKTVYLQMNSLKPEDTAVYVCNIKAHPNPWGFDNDYWGQGTQVTVSS	1.2 nM	0.0078 nM		
